Here are results for one substance from article PMC1751550.

This assay addresses full length Brn-3b GST fusion protein (UniProt Q63934). Kind of assay: pull-down.
Sequence of UniProt Q63934 (Q63934 whole entry, the tested form may be a part): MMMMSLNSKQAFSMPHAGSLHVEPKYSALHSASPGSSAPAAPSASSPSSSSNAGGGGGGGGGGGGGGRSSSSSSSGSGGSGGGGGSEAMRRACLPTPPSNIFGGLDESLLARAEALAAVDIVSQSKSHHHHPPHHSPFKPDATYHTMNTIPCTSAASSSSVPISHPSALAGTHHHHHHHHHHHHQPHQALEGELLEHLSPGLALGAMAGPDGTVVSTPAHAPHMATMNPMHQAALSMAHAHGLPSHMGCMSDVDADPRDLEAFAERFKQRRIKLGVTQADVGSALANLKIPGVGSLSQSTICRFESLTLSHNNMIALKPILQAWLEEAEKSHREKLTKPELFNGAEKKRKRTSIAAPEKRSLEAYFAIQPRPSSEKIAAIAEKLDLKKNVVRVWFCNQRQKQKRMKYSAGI

For “in vitro translated estrogen receptor (from UniProt P03372 1-595)”, the percent of input retained is 15.2 % of input.
